Measurements: publication doi:10.1101/2024.10.14.618219

Molecular target: microtubules polymerized from porcine tubulin (porcine) (UniProt Q2XVP4)
Assay: single-molecule TIRF microscopy on microtubules

Kif3A^ΔC89-Kif3B, sequence (Q9Y496 1-610, stated change not applied): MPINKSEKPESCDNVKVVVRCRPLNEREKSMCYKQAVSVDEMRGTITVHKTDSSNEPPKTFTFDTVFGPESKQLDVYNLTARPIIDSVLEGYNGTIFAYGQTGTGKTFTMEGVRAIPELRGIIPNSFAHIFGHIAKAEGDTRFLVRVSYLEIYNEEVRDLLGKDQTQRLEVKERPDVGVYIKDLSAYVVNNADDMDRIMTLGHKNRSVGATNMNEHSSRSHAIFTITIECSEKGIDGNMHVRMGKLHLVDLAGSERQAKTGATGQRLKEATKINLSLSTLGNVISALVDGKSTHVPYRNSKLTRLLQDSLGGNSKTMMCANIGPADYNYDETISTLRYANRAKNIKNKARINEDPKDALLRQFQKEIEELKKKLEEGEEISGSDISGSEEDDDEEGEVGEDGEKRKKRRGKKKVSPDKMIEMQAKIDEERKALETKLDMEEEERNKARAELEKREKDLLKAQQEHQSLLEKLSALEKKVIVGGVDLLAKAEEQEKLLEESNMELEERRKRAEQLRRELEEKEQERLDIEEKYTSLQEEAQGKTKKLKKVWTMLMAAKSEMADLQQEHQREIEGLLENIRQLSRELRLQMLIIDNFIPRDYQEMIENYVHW
Kif3A^ΔC89-Kif3B, sequence (O15066 whole entry, stated change not applied): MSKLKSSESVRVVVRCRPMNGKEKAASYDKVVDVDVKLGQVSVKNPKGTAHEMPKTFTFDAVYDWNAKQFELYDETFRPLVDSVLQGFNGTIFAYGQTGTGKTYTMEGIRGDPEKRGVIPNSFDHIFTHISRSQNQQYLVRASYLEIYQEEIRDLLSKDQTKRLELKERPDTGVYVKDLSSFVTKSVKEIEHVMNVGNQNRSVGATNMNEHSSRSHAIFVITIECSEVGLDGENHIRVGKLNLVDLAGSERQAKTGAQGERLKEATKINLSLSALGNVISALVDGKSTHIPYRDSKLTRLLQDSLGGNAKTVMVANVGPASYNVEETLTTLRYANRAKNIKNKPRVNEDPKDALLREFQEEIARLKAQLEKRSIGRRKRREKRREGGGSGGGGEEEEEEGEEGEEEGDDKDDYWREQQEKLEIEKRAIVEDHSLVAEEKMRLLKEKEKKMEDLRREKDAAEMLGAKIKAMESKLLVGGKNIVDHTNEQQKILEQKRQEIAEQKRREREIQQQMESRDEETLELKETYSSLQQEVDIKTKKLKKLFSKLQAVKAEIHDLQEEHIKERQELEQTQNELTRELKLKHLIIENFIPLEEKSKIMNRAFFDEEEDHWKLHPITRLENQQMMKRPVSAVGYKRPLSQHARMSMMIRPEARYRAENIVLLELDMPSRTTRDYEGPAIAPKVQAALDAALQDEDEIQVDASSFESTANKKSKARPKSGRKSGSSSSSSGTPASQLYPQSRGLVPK
Kif3A^ΔC103-Kif3B, sequence (Q9Y496 1-596, stated change not applied): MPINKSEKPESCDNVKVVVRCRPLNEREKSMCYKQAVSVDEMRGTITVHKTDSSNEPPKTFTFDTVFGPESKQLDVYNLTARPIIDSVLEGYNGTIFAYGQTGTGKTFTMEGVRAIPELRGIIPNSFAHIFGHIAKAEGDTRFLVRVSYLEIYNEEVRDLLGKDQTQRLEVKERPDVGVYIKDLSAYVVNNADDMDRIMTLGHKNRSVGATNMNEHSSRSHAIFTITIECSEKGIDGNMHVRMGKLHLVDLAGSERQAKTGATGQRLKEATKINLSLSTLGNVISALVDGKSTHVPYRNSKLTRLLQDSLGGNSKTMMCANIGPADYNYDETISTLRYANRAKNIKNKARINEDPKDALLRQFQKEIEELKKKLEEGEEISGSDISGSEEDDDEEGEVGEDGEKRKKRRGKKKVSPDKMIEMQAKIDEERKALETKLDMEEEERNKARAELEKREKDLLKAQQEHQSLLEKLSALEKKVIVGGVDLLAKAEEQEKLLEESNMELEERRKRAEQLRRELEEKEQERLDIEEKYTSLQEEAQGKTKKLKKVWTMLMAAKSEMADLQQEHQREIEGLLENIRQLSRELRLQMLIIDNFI
Kif3A^ΔC103-Kif3B, sequence (O15066 whole entry, stated change not applied): as the sequence (O15066 whole entry, stated change not applied) above

Substance: Kif3A^ΔC89-Kif3B (from UniProt Q9Y496 1-610; O15066 1-747) (complex)
- landing rate (μm^-1 nM^-1 min^-1): 0.6

Substance: Kif3A^ΔC103-Kif3B (from UniProt Q9Y496 1-596; O15066 1-747) (complex)
- landing rate (μm^-1 nM^-1 min^-1): 0.6
